# Test results taken from patent publication US20250197467A1 (BRIGHT PEAK THERAPEUTICS, published 2025).
# T1: IL-18 receptor (IL-18Rαβ) on cells (UniProt Q13478 19-541; O95256 20-599, limits assumed)
# T1 sequence (looked up) 1: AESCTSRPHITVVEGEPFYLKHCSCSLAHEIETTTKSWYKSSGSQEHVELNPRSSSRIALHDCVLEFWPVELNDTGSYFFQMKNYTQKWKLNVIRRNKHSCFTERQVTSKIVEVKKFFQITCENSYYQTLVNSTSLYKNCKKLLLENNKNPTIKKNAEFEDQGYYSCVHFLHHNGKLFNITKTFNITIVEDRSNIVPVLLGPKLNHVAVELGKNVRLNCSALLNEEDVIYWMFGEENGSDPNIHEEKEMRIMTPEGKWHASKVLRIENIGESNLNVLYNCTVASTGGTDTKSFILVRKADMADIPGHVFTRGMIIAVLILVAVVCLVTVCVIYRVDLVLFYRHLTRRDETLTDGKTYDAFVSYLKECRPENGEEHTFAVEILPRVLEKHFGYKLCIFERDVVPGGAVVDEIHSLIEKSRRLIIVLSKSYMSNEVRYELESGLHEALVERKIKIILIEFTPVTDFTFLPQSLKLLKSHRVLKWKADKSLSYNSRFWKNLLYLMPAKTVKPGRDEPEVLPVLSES
# T1 sequence (looked up) 2: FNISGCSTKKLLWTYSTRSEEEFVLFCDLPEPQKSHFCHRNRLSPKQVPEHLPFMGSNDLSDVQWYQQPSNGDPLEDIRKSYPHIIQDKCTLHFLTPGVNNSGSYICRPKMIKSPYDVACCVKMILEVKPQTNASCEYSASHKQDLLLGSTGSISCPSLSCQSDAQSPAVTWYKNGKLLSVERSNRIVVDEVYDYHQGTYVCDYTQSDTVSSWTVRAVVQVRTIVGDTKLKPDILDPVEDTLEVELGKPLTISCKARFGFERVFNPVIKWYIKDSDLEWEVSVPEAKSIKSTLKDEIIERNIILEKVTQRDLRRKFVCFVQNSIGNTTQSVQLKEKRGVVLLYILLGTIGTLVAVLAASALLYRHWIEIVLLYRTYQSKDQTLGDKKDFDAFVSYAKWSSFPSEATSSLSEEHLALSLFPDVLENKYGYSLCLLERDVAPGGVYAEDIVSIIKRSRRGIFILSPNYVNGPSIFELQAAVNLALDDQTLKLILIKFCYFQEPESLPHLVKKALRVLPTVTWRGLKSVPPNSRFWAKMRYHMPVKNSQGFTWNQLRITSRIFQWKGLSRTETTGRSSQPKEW
# Molecular target: T1, IL-18 receptor (IL-18Rαβ) on cells
# Experiment: cell-based or functional assay
row,Binder,Hek Blue reporter assay EC50 [nM]
1,C173 (ligand) YFGKLKSKLSIIRNLNDQVLFIDQGNRPLFEDMTDSDARDNAPRTIFIISMYADSQPRGMAVAISVKCEKISTLSAENKIISFKEMNPPDNIKDTKSDIIFFQRSVPGHDNKMQFESSSYEGYFLAAEKERDLFKLILKKEDELGDRSIMFTVQNEPLGLAGSNIVPVLLGPKLNHVAVELGKNVRLNCSALLNEEDVIYWMFGEENGSDPNIHEEKEMRIMTPEGKWHASKVLRIENIGESNLNVLYNCTVASTGGTDTKSFILVRKADHHHHHH,0.00013
2,C314 (ligand) MAAEPVEDNAINFVAMKFIDNTLYFIAEDDENLESDPLGYFGKLKSKLSIIRNLNDQVLFIDQGNRPLFEDMTDSDARDNAPRTIFIISMYADSQPRGMAVAISVKCEKISTLSAENKIISFKEMNPPDNIKDTKSDIIFFQRSVPGHDNKMQFESSSYEGYFLAAEKERDLFKLILKKEDELGDRSIMFTVQNED,4
3,C315 (ligand) MAAEPVEDNSINFVAMKFIDNTLYFIAEDDENLESDPLGYFGKLKSKLSIIRNLNDQVLFIDQGNRPLFEDMTDSDARDNAPRTIFIISMYADSQPRGMAVAISVKCEKISTLSAENKIISFKEMNPPDNIKDTKSDIIFFQRSVPGHDNKMQFESSSYEGYFLAAEKERDLFKLILKKEDELGDRSIMFTVQNED,3.36

# Molecular target: T1, IL-18 receptor (IL-18Rαβ) on cells
# Experiment: cell-based or functional assay
# Remark: another data set of the same source
row,Binder,IFNγ release NK-92 assay EC50 [nM]
1,C314 (ligand) MAAEPVEDNAINFVAMKFIDNTLYFIAEDDENLESDPLGYFGKLKSKLSIIRNLNDQVLFIDQGNRPLFEDMTDSDARDNAPRTIFIISMYADSQPRGMAVAISVKCEKISTLSAENKIISFKEMNPPDNIKDTKSDIIFFQRSVPGHDNKMQFESSSYEGYFLAAEKERDLFKLILKKEDELGDRSIMFTVQNED,255
2,C315 (ligand) MAAEPVEDNSINFVAMKFIDNTLYFIAEDDENLESDPLGYFGKLKSKLSIIRNLNDQVLFIDQGNRPLFEDMTDSDARDNAPRTIFIISMYADSQPRGMAVAISVKCEKISTLSAENKIISFKEMNPPDNIKDTKSDIIFFQRSVPGHDNKMQFESSSYEGYFLAAEKERDLFKLILKKEDELGDRSIMFTVQNED,252
3,C316 (ligand) MAAEPVEDNSINFVAMKFIDNTLYFIAEDDENLESDSGRVANLVGYFGKLKSKLSIIRNLNDQVLFIDQGNRPLFEDMTDSDARDNAPRTIFIISMYADSQPRGMAVAISVKCEKISTLSAENKIISFKEMNPPDNIKDTKSDIIFFQRSVPGHDNKMQFESSSYEGYFLAAEKERDLFKLILKKEDELGDRSIMFTVQNED,532
4,C316 + Matriptase (ligand) MAAEPVEDNSINFVAMKFIDNTLYFIAEDDENLESDSGRVANLVGYFGKLKSKLSIIRNLNDQVLFIDQGNRPLFEDMTDSDARDNAPRTIFIISMYADSQPRGMAVAISVKCEKISTLSAENKIISFKEMNPPDNIKDTKSDIIFFQRSVPGHDNKMQFESSSYEGYFLAAEKERDLFKLILKKEDELGDRSIMFTVQNED,366
5,C317 (ligand) MAAEPVEDNSINFVAMKFIDNTLYFIAEDDENLESDRGRRVANLVGYFGKLKSKLSIIRNLNDQVLFIDQGNRPLFEDMTDSDARDNAPRTIFIISMYADSQPRGMAVAISVKCEKISTLSAENKIISFKEMNPPDNIKDTKSDIIFFQRSVPGHDNKMQFESSSYEGYFLAAEKERDLFKLILKKEDELGDRSIMFTVQNED,526
6,C318 (ligand) MAAEPVEDNSINFVAMKFIDNTLYFIAEDDENLESDSGRVANYFGKLKSKLSIIRNLNDQVLFIDQGNRPLFEDMTDSDARDNAPRTIFIISMYADSQPRGMAVAISVKCEKISTLSAENKIISFKEMNPPDNIKDTKSDIIFFQRSVPGHDNKMQFESSSYEGYFLAAEKERDLFKLILKKEDELGDRSIMFTVQNED,21.9
7,C318 + Matriptase (ligand) MAAEPVEDNSINFVAMKFIDNTLYFIAEDDENLESDSGRVANYFGKLKSKLSIIRNLNDQVLFIDQGNRPLFEDMTDSDARDNAPRTIFIISMYADSQPRGMAVAISVKCEKISTLSAENKIISFKEMNPPDNIKDTKSDIIFFQRSVPGHDNKMQFESSSYEGYFLAAEKERDLFKLILKKEDELGDRSIMFTVQNED,22.1
8,C319 (ligand) MAAEPVEDNSINFVAMKFIDNTLYFIAEDDENLESDRGRRVANYFGKLKSKLSIIRNLNDQVLFIDQGNRPLFEDMTDSDARDNAPRTIFIISMYADSQPRGMAVAISVKCEKISTLSAENKIISFKEMNPPDNIKDTKSDIIFFQRSVPGHDNKMQFESSSYEGYFLAAEKERDLFKLILKKEDELGDRSIMFTVQNED,21.3
9,C320 (ligand) MAAEPVEDNSINFVAMKFIDNTLYFIAEDDENLESDSGRPLGYFGKLKSKLSIIRNLNDQVLFIDQGNRPLFEDMTDSDARDNAPRTIFIISMYADSQPRGMAVAISVKCEKISTLSAENKIISFKEMNPPDNIKDTKSDIIFFQRSVPGHDNKMQFESSSYEGYFLAAEKERDLFKLILKKEDELGDRSIMFTVQNED,158
10,C321 (ligand) MAAEPVEDNSINFVAMKFIDNTLYFIAEDDENLESDRGRRPLGYFGKLKSKLSIIRNLNDQVLFIDQGNRPLFEDMTDSDARDNAPRTIFIISMYADSQPRGMAVAISVKCEKISTLSAENKIISFKEMNPPDNIKDTKSDIIFFQRSVPGHDNKMQFESSSYEGYFLAAEKERDLFKLILKKEDELGDRSIMFTVQNED,112
11,C322 (ligand) MAAEPVEDNSINFVAMKFIDNTLYFIAEDDENLESDSGRVANLVGGSGYFGKLKSKLSIIRNLNDQVLFIDQGNRPLFEDMTDSDARDNAPRTIFIISMYADSQPRGMAVAISVKCEKISTLSAENKIISFKEMNPPDNIKDTKSDIIFFQRSVPGHDNKMQFESSSYEGYFLAAEKERDLFKLILKKEDELGDRSIMFTVQNED,205
12,C323 (ligand) MAAEPVEDNSINFVAMKFIDNTLYFIAEDDENLESDRGRRVANLVGGSGYFGKLKSKLSIIRNLNDQVLFIDQGNRPLFEDMTDSDARDNAPRTIFIISMYADSQPRGMAVAISVKCEKISTLSAENKIISFKEMNPPDNIKDTKSDIIFFQRSVPGHDNKMQFESSSYEGYFLAAEKERDLFKLILKKEDELGDRSIMFTVQNED,102

# Now from value to binder:
row,IFNγ release NK-92 assay EC50 [nM],Binder
1,51.7,C324 (ligand) MAAEPVEDNSINFVAMKFIDNTLYFIAEDDENLESDRGRRVANPLGYFGKLKSKLSIIRNLNDQVLFIDQGNRPLFEDMTDSDARDNAPRTIFIISMYADSQPRGMAVAISVKCEKISTLSAENKIISFKEMNPPDNIKDTKSDIIFFQRSVPGHDNKMQFESSSYEGYFLAAEKERDLFKLILKKEDELGDRSIMFTVQNED
2,0.0022,C324 + MMP9 (ligand) YFGKLKSKLSIIRNLNDQVLFIDQGNRPLFEDMTDSDARDNAPRTIFIISMYADSQPRGMAVAISVKCEKISTLSAENKIISFKEMNPPDNIKDTKSDIIFFQRSVPGHDNKMQFESSSYEGYFLAAEKERDLFKLILKKEDELGDRSIMFTVQNED
3,201,C325 (ligand) MAAEPVEDNSINFVAMKFIDNTLYFIAEDDENLESDRGRRPLGLAGGSGYFGKLKSKLSIIRNLNDQVLFIDQGNRPLFEDMTDSDARDNAPRTIFIISMYADSQPRGMAVAISVKCEKISTLSAENKIISFKEMNPPDNIKDTKSDIIFFQRSVPGHDNKMQFESSSYEGYFLAAEKERDLFKLILKKEDELGDRSIMFTVQNED
4,0.0467,C325 + MMP9 (ligand) LAGGSGYFGKLKSKLSIIRNLNDQVLFIDQGNRPLFEDMTDSDARDNAPRTIFIISMYADSQPRGMAVAISVKCEKISTLSAENKIISFKEMNPPDNIKDTKSDIIFFQRSVPGHDNKMQFESSSYEGYFLAAEKERDLFKLILKKEDELGDRSIMFTVQNED
5,217,C326 (ligand) MAAEPVEDNSINFVAMKFIDNTLYFIAEDDENLESDRGRRVANPLGLAGSGYFGKLKSKLSIIRNLNDQVLFIDQGNRPLFEDMTDSDARDNAPRTIFIISMYADSQPRGMAVAISVKCEKISTLSAENKIISFKEMNPPDNIKDTKSDIIFFQRSVPGHDNKMQFESSSYEGYFLAAEKERDLFKLILKKEDELGDRSIMFTVQNED
6,0.0514,C326 + MMP9 (ligand) LAGSGYFGKLKSKLSIIRNLNDQVLFIDQGNRPLFEDMTDSDARDNAPRTIFIISMYADSQPRGMAVAISVKCEKISTLSAENKIISFKEMNPPDNIKDTKSDIIFFQRSVPGHDNKMQFESSSYEGYFLAAEKERDLFKLILKKEDELGDRSIMFTVQNED
